Consider one molecule from paper PMC11697363 (Nature Communications, 2025).

For the experiment, the target named is T1, GST-Pelota (Arabidopsis thaliana, UniProt Q9ZT87 1-378).
T1 sequence (looked up): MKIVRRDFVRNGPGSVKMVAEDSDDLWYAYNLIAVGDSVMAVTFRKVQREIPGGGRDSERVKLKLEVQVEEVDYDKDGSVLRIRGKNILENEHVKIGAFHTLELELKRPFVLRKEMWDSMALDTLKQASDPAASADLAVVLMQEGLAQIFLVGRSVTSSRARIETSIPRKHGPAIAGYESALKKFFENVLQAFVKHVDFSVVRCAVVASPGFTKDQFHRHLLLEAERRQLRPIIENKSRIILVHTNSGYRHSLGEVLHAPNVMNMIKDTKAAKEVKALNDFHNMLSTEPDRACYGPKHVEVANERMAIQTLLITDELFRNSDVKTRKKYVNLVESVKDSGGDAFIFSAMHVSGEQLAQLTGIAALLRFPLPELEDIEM
The experiment can be described thus: pull-down.

B1: MBP-SCE1 (enzyme, Arabidopsis thaliana, UniProt Q42551 1-160, looked up)
chain: MASGIARGRLAEERKSWRKNHPHGFVAKPETGQDGTVNLMVWHCTIPGKAGTDWEGGFFPLTMHFSEDYPSKPPKCKFPQGFFHPNVYPSGTVCLSILNEDYGWRPAITVKQILVGIQDLLDTPNPADPAQTDGYHLFCQDPVEYKKRVKLQSKQYPALV
Consider B1, for which the binding result was “binds”.
